Assay results taken from publication PMC13281853 (The FASEB Journal, 2022).

Assays:
SPR = target: the molecule itself; experiment: SPR
[1] = target: ancGR2-LBD (ligand-binding domain of the ancestral glucocorticoid receptor 2), Dex-bound; experiment: SPR

B1: MR-LBD (ligand-binding domain of the mineralocorticoid receptor), Dex-bound (domain or fragment)
chain: QLSTISRALTPSPVMVLENIEPEIVYAGYDSSKPDTAENLLSTLNRLAGKQMIQVVKWAKVLPGFKNLPLEDQITLIQYSWMCLSSFALSWRSYKHTNSQFLYFAPDLVFNEEKMHQSAMYELCQGMHQISLQFVRLQLTFEEYTIMKVLLLLSTIPKDGLKSQAAFEEMRTNYIKELRKMVTKCPNNSGQSWQRFYQLTKLLDSMHDLVSDLLEFCFYTFRESHALKVEFPAMLVEII
SPR
  Kd: 1.49 ± 0.41 µM
[1]
  Kd: 11.6 ± 1.5 µM
